Common to all, as to experiment: ELISA; TRAILR1-Fc or TRAILR2-Fc coated (200 ng/well in 0.1 M sodium carbonate buffer, pH 9.5), samples in 3% skim milk/PBS titrated 1:3 from 150 nM, 2 h room temperature, concentrations normalised to one scTRAIL unit, detected with anti-FLAG M2-HRP
(In general: In an ELISA, binding on a coated surface is turned into a signal by an enzyme label.)

In assay [1] the target is TRAILR2-Fc (UniProt O14763).
Assay [2] concerns the target T1, TRAILR2-Fc (UniProt O14763 56-210).
T1 construct: TRAIL receptor 2 (TRAILR2); Probably the extracellular domain fused to an Fc
As to conditions: both partners purified.

For assay [3], the target named is T2, TRAILR1-Fc (UniProt O00220 24-239).
T2 construct: TRAIL receptor 1 (TRAILR1); Probably the extracellular domain fused to an Fc
The note with it: both partners purified.

T2 sequence (O00220 24-239): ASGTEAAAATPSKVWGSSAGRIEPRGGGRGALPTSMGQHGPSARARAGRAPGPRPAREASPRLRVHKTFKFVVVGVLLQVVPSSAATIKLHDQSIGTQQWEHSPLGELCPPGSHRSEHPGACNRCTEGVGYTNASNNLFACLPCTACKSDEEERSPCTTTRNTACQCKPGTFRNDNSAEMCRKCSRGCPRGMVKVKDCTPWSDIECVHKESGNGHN

Usually EC50 stands for the midpoint of the concentration-response curve. A low value points to an effect from little substance. “HC-scTRAIL (fusion of scTRAIL to hu225 IgG heavy chains)” gave a concentration giving a half-maximal response (EC50) in assay [1] of 0.8 nM.
On the same count and under the same terms, in the case of “LC/HC-scTRAIL (fusion of scTRAIL to both hu225 IgG chains)” it was 3.4 nM; in that of “LC-scTRAIL (fusion of scTRAIL to hu225 IgG light chains)”, 0.9 nM.

B1: Fc-scTRAIL-FAVSGAA (Fc fusion)
chain: AAHITGTRGRSNTLSSPNSKNEKALGRKINSWESSRSGHSFLSNLHLRNGELVIHEKGFYYIYSQTYFRFQEEIKENTKNDKQMVQYIYKYTSYPDPILLMKSARNSCWSKDAEYGLYSIYQGGIFELKENDRIFVSVTNEHLIDMDHEASFFGAFAVSGAAHITGTRGRSNTLSSPNSKNEKALGRKINSWESSRSGHSFLSNLHLRNGELVIHEKGFYYIYSQTYFRFQEEIKENTKNDKQMVQYIYKYTSYPDPILLMKSARNSCWSKDAEYGLYSIYQGGIFELKENDRIFVSVTNEHLIDMDHEASFFGAFAVSGAAHITGTRGRSNTLSSPNSKNEKALGRKINSWESSRSGHSFLSNLHLRNGELVIHEKGFYYIYSQTYFRFQEEIKENTKNDKQMVQYIYKYTSYPDPILLMKSARNSCWSKDAEYGLYSIYQGGIFELKENDRIFVSVTNEHLIDMDHEASFFGAFAVS
For the molecule B1, the EC50 in assay [2] came out at 1.1 nM; in assay [3], 7.3 nM.
